The values that follow come from publication PMC9646525, “Cryo-EM structure of the SEA complex” (Nature, 2022).

The target of one assay is T1, Sea4-TAP (S. cerevisiae (endogenous in yeast …, UniProt P38164 1-1038)).
T1 construct: Sea4, S. cerevisiae, endogenous subunit of the SEAC (SEACAT, core), TAP-tagged; Captured by the TAP tag on IgG beads; the complex was released with TEV protease before SDS-PAGE and cryo-EM; Written 'Sea4-TAP'; Four copies in the SEAC; source: endogenous, yeast cells expressing Sea4-TAP; in lysate, purified on IgG-coupled Dynabeads and eluted with TEV protease
T1 sequence (looked up): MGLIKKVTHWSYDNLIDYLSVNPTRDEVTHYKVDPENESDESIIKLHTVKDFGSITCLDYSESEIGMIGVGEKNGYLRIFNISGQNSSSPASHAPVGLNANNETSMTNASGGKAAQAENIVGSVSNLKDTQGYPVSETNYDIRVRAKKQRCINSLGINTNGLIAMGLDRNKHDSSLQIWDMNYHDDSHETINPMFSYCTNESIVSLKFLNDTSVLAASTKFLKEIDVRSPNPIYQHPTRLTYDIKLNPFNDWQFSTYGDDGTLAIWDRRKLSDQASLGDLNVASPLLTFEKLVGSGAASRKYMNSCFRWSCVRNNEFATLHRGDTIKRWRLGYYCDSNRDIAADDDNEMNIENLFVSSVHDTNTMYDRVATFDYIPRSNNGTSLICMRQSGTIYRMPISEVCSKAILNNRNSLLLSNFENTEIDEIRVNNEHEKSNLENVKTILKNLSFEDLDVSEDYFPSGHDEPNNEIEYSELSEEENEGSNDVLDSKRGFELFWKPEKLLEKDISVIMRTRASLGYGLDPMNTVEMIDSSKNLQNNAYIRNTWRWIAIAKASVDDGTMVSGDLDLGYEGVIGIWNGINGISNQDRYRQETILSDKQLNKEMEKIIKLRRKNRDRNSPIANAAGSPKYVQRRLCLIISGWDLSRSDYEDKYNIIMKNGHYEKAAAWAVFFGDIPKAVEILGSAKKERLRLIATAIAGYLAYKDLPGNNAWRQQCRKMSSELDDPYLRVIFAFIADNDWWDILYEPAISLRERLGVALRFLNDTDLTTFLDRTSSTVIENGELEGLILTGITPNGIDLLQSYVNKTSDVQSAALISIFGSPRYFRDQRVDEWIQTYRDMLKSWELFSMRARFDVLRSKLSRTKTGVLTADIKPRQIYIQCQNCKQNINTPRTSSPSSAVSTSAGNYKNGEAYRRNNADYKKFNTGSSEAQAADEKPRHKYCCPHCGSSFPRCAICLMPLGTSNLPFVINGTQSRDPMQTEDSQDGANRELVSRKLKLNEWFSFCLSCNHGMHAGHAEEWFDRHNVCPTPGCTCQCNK
Put plainly: cryo-EM structure; endogenous SEAC purified from yeast via Sea4-TAP (IgG Dynabeads, TEV elution in 20 mM HEPES-NaOH pH 7.4, 300 mM NaCl, 2 mM DTT), on graphene-oxide-coated grids. The note with it: both partners purified.

The next assay has as its target T2, Sea2 (S. cerevisiae (endogenous in yeast …, UniProt Q08281 1-1341)).
T2 construct: Sea2, S. cerevisiae, endogenous subunit of the SEAC (SEACAT, core); Native protein of the purified complex; two copies in the SEAC; source: endogenous, yeast cells expressing Sea4-TAP; in lysate and co-purified with Sea4-TAP (IgG Dynabeads, TEV elution)
T2 sequence (looked up): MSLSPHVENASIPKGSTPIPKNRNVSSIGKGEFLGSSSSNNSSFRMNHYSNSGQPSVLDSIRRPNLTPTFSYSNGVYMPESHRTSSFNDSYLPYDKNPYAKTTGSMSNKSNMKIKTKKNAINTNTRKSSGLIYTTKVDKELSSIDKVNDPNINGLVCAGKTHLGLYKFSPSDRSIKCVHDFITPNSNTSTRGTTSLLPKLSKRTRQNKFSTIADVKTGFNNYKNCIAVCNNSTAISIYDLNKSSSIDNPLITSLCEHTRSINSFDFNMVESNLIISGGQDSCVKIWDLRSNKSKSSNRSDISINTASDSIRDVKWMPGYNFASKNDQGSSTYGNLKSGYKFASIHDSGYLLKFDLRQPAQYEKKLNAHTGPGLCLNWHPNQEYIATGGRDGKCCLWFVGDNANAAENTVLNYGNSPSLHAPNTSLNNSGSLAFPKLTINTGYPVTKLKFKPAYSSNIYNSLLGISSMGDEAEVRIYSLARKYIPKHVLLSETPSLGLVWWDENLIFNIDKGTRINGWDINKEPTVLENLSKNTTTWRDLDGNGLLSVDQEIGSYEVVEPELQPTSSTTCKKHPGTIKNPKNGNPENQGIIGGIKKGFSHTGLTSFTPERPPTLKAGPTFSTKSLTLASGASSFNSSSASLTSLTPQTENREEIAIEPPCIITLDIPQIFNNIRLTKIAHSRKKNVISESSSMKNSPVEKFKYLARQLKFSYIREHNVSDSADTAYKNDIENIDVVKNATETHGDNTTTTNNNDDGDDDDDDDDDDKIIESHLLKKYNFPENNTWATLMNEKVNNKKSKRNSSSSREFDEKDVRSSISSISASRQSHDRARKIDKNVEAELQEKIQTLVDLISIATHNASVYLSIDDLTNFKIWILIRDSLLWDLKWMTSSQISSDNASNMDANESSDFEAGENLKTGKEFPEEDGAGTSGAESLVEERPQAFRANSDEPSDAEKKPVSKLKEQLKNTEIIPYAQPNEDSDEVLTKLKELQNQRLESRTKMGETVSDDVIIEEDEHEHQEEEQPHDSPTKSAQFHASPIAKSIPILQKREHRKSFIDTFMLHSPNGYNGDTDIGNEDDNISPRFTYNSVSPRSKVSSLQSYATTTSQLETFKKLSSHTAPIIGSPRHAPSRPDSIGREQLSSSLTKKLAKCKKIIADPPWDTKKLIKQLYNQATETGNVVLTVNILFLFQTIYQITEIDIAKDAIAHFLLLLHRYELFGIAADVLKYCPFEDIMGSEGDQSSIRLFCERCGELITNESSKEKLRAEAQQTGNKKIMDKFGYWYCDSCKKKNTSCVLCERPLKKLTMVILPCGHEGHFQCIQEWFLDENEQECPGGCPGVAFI
Described as above. Particulars: both partners purified.

B1: Seh1 (natural protein, UniProt P53011 1-349, looked up)
chain: MQPFDSGHDDLVHDVVYDFYGRHVATCSSDQHIKVFKLDKDTSNWELSDSWRAHDSSIVAIDWASPEYGRIIASASYDKTVKLWEEDPDQEECSGRRWNKLCTLNDSKGSLYSVKFAPAHLGLKLACLGNDGILRLYDALEPSDLRSWTLTSEMKVLSIPPANHLQSDFCLSWCPSRFSPEKLAVSALEQAIIYQRGKDGKLHVAAKLPGHKSLIRSISWAPSIGRWYQLIATGCKDGRIRIFKITEKLSPLASEESLTNSNMFDNSADVDMDAQGRSDSNTEEKAELQSNLQVELLSEHDDHNGEVWSVSWNLTGTILSSAGDDGKVRLWKATYSNEFKCMSVITAQQ
notes: Seh1, S. cerevisiae, endogenous subunit of the SEAC (SEACAT, core); Native protein of the purified complex; six copies in the SEAC; source: endogenous, yeast cells expressing Sea4-TAP; in lysate and co-purified with Sea4-TAP (IgG Dynabeads, TEV elution)
As to B1, the binding result in the assay with Sea4-TAP and with Sea2 was “binds” each time.
